No end group written: not given here. *: point of attachment. (PEG)2 40 kDa = branched PEG of 40 kDa linked via the Cys side-chain thiol (code C2 = Cys(PEG)2 40 kDa); Succinimide(1-Et,3-yl) = CCN1C(=O)CC(*)C1=O; Palmitoyl = CCCCCCCCCCCCCCCC(=O)*
T1: mouse NMUR1-ATG (mouse, UniProt O55040 1-428)
T1 sequence (looked up): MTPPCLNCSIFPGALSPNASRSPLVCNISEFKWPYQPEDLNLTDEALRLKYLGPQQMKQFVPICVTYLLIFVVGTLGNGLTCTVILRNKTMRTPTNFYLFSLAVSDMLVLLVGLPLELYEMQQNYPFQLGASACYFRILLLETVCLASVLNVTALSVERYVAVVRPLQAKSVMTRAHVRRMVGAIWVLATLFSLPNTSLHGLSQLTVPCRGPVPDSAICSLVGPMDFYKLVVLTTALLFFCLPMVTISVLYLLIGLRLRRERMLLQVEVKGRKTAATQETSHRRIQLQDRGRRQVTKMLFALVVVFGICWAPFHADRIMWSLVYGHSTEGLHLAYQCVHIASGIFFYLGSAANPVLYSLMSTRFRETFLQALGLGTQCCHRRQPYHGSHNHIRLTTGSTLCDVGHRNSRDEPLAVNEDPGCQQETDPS

T2: mouse NMUR1-CTG (mouse, UniProt O55040 1-428)
T2 sequence (looked up): T1 sequence (looked up)

T3: rat NMUR1-TTG (rat, UniProt Q9JJI5 1-425)
T3 sequence (looked up): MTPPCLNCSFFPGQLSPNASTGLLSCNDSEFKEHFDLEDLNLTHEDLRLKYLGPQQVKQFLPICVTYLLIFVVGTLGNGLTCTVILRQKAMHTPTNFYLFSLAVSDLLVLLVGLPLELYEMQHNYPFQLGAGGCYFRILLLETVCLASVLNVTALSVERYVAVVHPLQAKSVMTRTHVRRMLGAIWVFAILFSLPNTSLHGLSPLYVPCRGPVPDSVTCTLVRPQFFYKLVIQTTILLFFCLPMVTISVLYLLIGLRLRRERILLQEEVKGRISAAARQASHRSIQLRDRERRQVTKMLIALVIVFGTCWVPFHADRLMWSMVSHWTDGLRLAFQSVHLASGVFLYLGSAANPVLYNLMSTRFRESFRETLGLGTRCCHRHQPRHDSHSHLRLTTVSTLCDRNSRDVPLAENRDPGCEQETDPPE

T4: rat NMUR1-ATG (rat, UniProt Q9JJI5 1-425)
T4 sequence (looked up): T3 sequence (looked up)

T5: human NMUR1 (human, UniProt Q9HB89 1-426)
T5 sequence (looked up): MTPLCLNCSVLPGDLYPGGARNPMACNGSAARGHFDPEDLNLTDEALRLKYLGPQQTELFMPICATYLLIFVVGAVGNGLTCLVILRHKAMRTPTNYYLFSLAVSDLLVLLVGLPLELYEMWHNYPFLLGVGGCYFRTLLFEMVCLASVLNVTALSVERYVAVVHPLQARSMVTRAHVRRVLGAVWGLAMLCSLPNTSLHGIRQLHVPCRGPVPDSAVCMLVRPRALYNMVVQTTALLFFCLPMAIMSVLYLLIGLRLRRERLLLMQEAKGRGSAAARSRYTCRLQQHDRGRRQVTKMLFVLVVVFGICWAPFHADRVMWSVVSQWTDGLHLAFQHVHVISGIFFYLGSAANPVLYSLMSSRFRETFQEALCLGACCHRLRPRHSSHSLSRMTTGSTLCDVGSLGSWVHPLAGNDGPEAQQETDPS

B1: NMU6 (peptide)
peptide: Ac-C(Succinimide(1-Et,3-yl))GYFLFRPRN-NH2
SMILES: CCN1C(=O)CC(SC[C@H](NC(C)=O)C(=O)NCC(=O)N[C@@H](Cc2ccc(O)cc2)C(=O)N[C@@H](Cc2ccccc2)C(=O)N[C@@H](CC(C)C)C(=O)N[C@@H](Cc2ccccc2)C(=O)N[C@@H](CCCNC(=N)N)C(=O)N2CCC[C@H]2C(=O)N[C@@H](CCCNC(=N)N)C(=O)N[C@@H](CC(N)=O)C(N)=O)C1=O

What follows are binders tested against T1, mouse NMUR1-ATG (assay: cell-based or functional assay).

Row | Binder | % Activity (FLIPR) | EC50 (FLIPR)
1 | GYFLFRPRN-NH2 [NMU3] | 100% | 2.9 nM
2 | Palmitoyl-C((PEG)2 40 kDa)FRVDEEFQSPFASQSRGYFLFRPRN-NH2 [NMU25] | 100% | 10.2 nM
3 | Ac-FRVDEEFQSPFASQSRGYFLFRPRN-NH2 [NMU2] | 100% | 2.1 nM
4 | FRVDEEFQSPFASQSRPYFLFRPRN-NH2 [NMU4] | 100% | 3.6 nM
5 | Ac-FRVDEEFQSPFASQSRPYFLFRPRN-NH2 [NMU5] | 100% | 3.3 nM
6 | B1 | 100% | 1 nM

These binders were tested against T2, mouse NMUR1-CTG (assay: cell-based or functional assay).

Row | Binder | % Activity (FLIPR) | EC50 (FLIPR)
7 | GYFLFRPRN-NH2 [NMU3] | 100% | 4.7 nM
8 | Palmitoyl-C((PEG)2 40 kDa)FRVDEEFQSPFASQSRGYFLFRPRN-NH2 [NMU25] | 100% | 60.3 nM
9 | Ac-FRVDEEFQSPFASQSRGYFLFRPRN-NH2 [NMU2] | 100% | 8.3 nM
10 | FRVDEEFQSPFASQSRPYFLFRPRN-NH2 [NMU4] | 100% | 11.6 nM
11 | Ac-FRVDEEFQSPFASQSRPYFLFRPRN-NH2 [NMU5] | 100% | 11.9 nM
12 | B1 | 100% | 2 nM

These binders were tested against mouse NMUR2 (mouse, UniProt Q8BZ39 1-395) (assay: cell-based or functional assay).
Sequence of mouse NMUR2 (Q8BZ39 whole entry): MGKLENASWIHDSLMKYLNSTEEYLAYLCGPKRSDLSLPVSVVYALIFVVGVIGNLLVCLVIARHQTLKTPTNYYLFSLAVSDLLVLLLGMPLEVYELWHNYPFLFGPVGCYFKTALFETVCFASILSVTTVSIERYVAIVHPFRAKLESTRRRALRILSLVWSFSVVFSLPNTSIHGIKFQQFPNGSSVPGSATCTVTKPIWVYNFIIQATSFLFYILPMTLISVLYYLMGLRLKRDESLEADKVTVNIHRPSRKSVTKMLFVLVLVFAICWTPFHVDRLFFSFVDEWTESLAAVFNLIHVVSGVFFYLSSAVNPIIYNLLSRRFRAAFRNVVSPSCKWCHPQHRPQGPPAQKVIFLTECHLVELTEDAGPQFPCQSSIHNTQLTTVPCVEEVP

Row | Binder | % Activity (FLIPR) | EC50 (FLIPR)
13 | GYFLFRPRN-NH2 [NMU3] | 100% | 1 nM
14 | Palmitoyl-C((PEG)2 40 kDa)FRVDEEFQSPFASQSRGYFLFRPRN-NH2 [NMU25] | 100% | 18.8 nM
15 | Ac-FRVDEEFQSPFASQSRGYFLFRPRN-NH2 [NMU2] | 100% | 1.2 nM
16 | FRVDEEFQSPFASQSRPYFLFRPRN-NH2 [NMU4] | 100% | 1.2 nM
17 | Ac-FRVDEEFQSPFASQSRPYFLFRPRN-NH2 [NMU5] | 100% | 1 nM
18 | B1 | 100% | 0.7 nM

Each binder was assayed against T3, rat NMUR1-TTG (assay: cell-based or functional assay).

Row | Binder | % Activity (FLIPR) | EC50 (FLIPR)
19 | Palmitoyl-C((PEG)2 40 kDa)FRVDEEFQSPFASQSRGYFLFRPRN-NH2 [NMU25] | 93.5% | 81 nM

These binders were tested against rat NMUR2 (rat, UniProt Q9ESQ4 1-395) (assay: cell-based or functional assay).
Sequence of rat NMUR2 (Q9ESQ4 whole entry): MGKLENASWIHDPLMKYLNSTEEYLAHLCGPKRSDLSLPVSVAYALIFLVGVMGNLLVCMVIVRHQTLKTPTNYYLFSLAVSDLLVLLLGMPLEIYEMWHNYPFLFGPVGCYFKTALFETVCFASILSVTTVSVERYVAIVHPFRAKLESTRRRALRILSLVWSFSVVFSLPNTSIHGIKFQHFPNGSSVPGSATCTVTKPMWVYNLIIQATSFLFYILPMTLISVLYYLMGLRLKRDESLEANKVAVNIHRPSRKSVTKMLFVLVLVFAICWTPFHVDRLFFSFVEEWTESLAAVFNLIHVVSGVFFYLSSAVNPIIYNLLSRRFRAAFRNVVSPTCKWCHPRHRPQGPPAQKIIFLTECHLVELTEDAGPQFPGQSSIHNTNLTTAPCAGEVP

Row | Binder | % Activity (FLIPR) | EC50 (FLIPR)
20 | GYFLFRPRN-NH2 [NMU3] | 100% | 1.8 nM
21 | Palmitoyl-C((PEG)2 40 kDa)FRVDEEFQSPFASQSRGYFLFRPRN-NH2 [NMU25] | 96.4% | 37.8 nM
22 | Ac-FRVDEEFQSPFASQSRGYFLFRPRN-NH2 [NMU2] | 100% | 2.2 nM
23 | FRVDEEFQSPFASQSRPYFLFRPRN-NH2 [NMU4] | 100% | 2.9 nM
24 | Ac-FRVDEEFQSPFASQSRPYFLFRPRN-NH2 [NMU5] | 100% | 2.3 nM
25 | B1 | 100% | 1.5 nM

The binders below were run against T4, rat NMUR1-ATG (assay: cell-based or functional assay).

Row | Binder | % Activity (FLIPR) | EC50 (FLIPR)
26 | GYFLFRPRN-NH2 [NMU3] | 100% | 0.7 nM
27 | Palmitoyl-C((PEG)2 40 kDa)FRVDEEFQSPFASQSRGYFLFRPRN-NH2 [NMU25] | 99.6% | 20.1 nM
28 | Ac-FRVDEEFQSPFASQSRGYFLFRPRN-NH2 [NMU2] | 89.2% | 3.3 nM
29 | FRVDEEFQSPFASQSRPYFLFRPRN-NH2 [NMU4] | 100% | 3.8 nM
30 | Ac-FRVDEEFQSPFASQSRPYFLFRPRN-NH2 [NMU5] | 100% | 3.6 nM
31 | B1 | 100% | 1 nM

What follows are binders tested against T5, human NMUR1 (assay: cell-based or functional assay).

Row | Binder | % Activity (FLIPR) | EC50 (FLIPR)
32 | GYFLFRPRN-NH2 [NMU3] | 98.9% | 5.6 nM
33 | Palmitoyl-C((PEG)2 40 kDa)FRVDEEFQSPFASQSRGYFLFRPRN-NH2 [NMU25] | 83% | 168 nM
34 | Ac-FRVDEEFQSPFASQSRGYFLFRPRN-NH2 [NMU2] | 99% | 5.5 nM
35 | FRVDEEFQSPFASQSRPYFLFRPRN-NH2 [NMU4] | 97% | 7.2 nM
36 | Ac-FRVDEEFQSPFASQSRPYFLFRPRN-NH2 [NMU5] | 98.1% | 6.1 nM
37 | B1 | 96.7% | 3.5 nM

Each binder was assayed against human NMUR2 (human, UniProt Q9GZQ4 1-415) (assay: cell-based or functional assay).
Sequence of human NMUR2 (Q9GZQ4 whole entry): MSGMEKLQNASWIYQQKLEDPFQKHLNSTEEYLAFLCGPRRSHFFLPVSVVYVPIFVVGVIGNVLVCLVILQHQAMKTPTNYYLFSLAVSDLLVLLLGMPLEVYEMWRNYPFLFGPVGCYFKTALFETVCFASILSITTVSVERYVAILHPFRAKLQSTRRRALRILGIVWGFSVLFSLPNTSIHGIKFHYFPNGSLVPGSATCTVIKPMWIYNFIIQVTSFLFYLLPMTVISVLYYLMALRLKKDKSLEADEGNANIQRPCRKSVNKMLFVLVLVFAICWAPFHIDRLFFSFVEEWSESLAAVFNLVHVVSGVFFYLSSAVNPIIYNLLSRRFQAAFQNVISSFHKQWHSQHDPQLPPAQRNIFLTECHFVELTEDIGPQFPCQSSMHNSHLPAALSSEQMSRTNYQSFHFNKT

Row | Binder | % Activity (FLIPR) | EC50 (FLIPR)
38 | GYFLFRPRN-NH2 [NMU3] | 100% | 1.9 nM
39 | Palmitoyl-C((PEG)2 40 kDa)FRVDEEFQSPFASQSRGYFLFRPRN-NH2 [NMU25] | 98.8% | 44.1 nM
40 | Ac-FRVDEEFQSPFASQSRGYFLFRPRN-NH2 [NMU2] | 97.4% | 2.6 nM
41 | FRVDEEFQSPFASQSRPYFLFRPRN-NH2 [NMU4] | 100% | 2.6 nM
42 | Ac-FRVDEEFQSPFASQSRPYFLFRPRN-NH2 [NMU5] | 98.1% | 2.5 nM
43 | B1 | 100% | 1.5 nM

— US20070244048A1 (published 2007)
